In publication doi:10.1101/2021.08.02.454546 (bioRxiv, 2021):

How the values were obtained:
[1] = target: T1, shorter version of peptide #289 (1153-DKYFKNHTSPD-1163) (SARS-CoV-2 (spike 1153-1163, matches …)); experiment: SPR; conditions: both partners purified
T1 chain: DKYFKNHTSPD

[2] = target: T2, SARS-CoV-2 S2 peptide #288 (1149-KEELDKYFKNHTSPD-1163) (SARS-CoV-2 (spike 1149-1163, matches …)); experiment: ELISA; conditions: both partners purified
T2 chain: KEELDKYFKNHTSPD

B1: CV3–25 IgG (antibody, V domains shown)
VH: EVQLVESGAEVKKPGESLKISCKGSGYTFTRYWIGWVRQMPGKGLEWMGIIYPGDSDTRYSPSFQGHVTISADKSISTAYLQWNSLKASDTAMYYCARLPQYCSNGVCQRWFDPWGQGTLVTVSS
VL: EIVLTQSPSSVSASVGDRVTITCRASQGISSWLAWYQQKPGKAPKLLIYAASSLQSGVPSRFSGSGSGTDFTLTISSLQPEDFATYYCQQGNSFPYTFGQGTNLEIK
Question: With B1 as the binder, how does the Kd [1] read?
Answer: Its Kd is about 1000 nM.

Question: Does B1 bind [2]?
Answer: Result: binds
